According to patent US20140141093A1 (DOMANTIS, published 2014):
Values belong to the binder of their own block, whether it stands above or below them.

Key:
human VEGF = target: T1, human VEGF (human, UniProt P15692-4 27-191, biotinylated in selections and on the SA sensorchip); experiment: RBA assay (footnote †); value read as that of the Fc fusion
T1 construct: also called hVEGF; VEGFA

TNFR1-FC fusion = target: T2, TNFR1-FC fusion (human, UniProt P19438 30-211, limits assumed); experiment: human TNFR1 receptor binding assay: inhibition of TNF-alpha (10 ng/ml) binding to bead-captured TNFR1-Fc, four replicates
T2 construct: not shown: Fc part (captured by goat anti-human IgG)
T2 sequence (looked up): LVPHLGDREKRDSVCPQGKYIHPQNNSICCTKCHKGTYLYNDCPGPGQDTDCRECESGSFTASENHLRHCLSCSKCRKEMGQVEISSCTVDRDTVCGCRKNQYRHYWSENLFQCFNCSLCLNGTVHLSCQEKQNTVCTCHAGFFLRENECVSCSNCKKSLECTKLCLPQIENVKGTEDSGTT

T1 sequence (P15692 other isoform, or with tags, fused parts or gaps limits assumed): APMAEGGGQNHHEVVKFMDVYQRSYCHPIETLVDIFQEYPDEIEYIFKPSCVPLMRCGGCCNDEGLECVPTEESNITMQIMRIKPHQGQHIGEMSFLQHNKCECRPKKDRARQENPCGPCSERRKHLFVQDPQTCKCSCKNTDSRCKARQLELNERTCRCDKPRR

Activity (nM), RBA assay (human VEGF): 0.913 nM
B1: DOM15-10 Fc fusion (Fc fusion)
chain: DIQMTQSPSSLSASVGDRVTITCRASQWIGPELSWYQQKPGKAPKLLIYHTSILQSGVPSRFSGSGSGTDFTLTISSLQPEDFATYYCQQYMFQPRTFGQGTKVEIRR
notes: also called DMS1546; not shown: short peptide linker and human IgG1 Fc

IC50 (read off the curve) (TNFR1-FC fusion): ~0.08 nM
B2: DOM1h-131-206 (other)
VH: EVQLLESGGGLVQPGGSLRLSCAASGFTFAHETMVWVRQAPGKGLEWVSHIPPDGQDPFYADSVKGRFTISRDNSKNTLYLQMNSLRAEDTAVYHCALLPKRGPWFDYWGQGTLVTVSS
notes: Human VH dAb against TNFR1; also called GSK1995057A
